Key:
[1] = target: SARS-CoV-2 full length spike protein, V367F mutant (SARS-CoV-2, UniProt P0DTC2 14-1273)
[2] = target: SARS-CoV-2 full length spike protein, D614G mutant (SARS-CoV-2, UniProt P0DTC2 14-1273)
[3] = target: SARS-CoV-2 full length spike protein, V483A mutant (SARS-CoV-2, UniProt P0DTC2 14-1273)
[4] = target: SARS-CoV-2 full length spike protein, V483A mutant, expressed on CHO cells (SARS-CoV-2, UniProt P0DTC2 14-1273)

| Binder | median fold over isotype [1] [fold over isotype] | median fold over isotype [2] [fold over isotype] | median fluorescence fold over isotype control [3] [fold over isotype] | median fluorescence fold over isotype control [4] [fold over isotype] |
| --- | --- | --- | --- | --- |
| antibody 520 (antibody, V domains shown) VH: QVQLVESGGGVVQPGRSLRLSCAASGFTFSSYAMHWGRQAPGKGLEWVAVISYDGSNKYYADSVKGRFTISRDNSKNTLYLQMNSLRAEDTAVYYCARDGGSGWLLVGNWFDPWGQGTLVTVSS VL: QSALTQPASVSGSPGQSITISCTGTSSDVGGYNYVSWYQQHPGKAPKLMIYDVSNRPSGVSNRFSGSKSGNTASLTISGLQAEDEADYYCSSYTSSITLYVFGTGTKVTVL | 31.2 | 7.6 | – | – |
| antibody 431 (antibody, V domains shown) VH: QVQLVESGGGVVQPGRSLRLSCAASGFTFSSYAMHWVRQAPGKGLEWLAVISYDGSNKYYADSVKGRFTISRDNSKNTLYLQMNSLRAEDTAVYYCARSFRGGYYYGMDVWGQGTTVTVSS VL: DIQLTQSPSFLSASVGDRVTITCRASQGISSYLAWYQQKPGKAPKLLIYAASTLQSGVPSRFSGSGSGTEFTLTISSLQPEDFATYYCQQLNSYPLFTFGPGTKVDIK | – | – | 11.7 | – |
| antibody 439 (antibody, V domains shown) VH: QVQLVESGGGVVQPGRSLRLSCAASGFTFSSYAMHWVRQAPGKGLEWVAVISYDGSNKYYADSVKGRFTISRDNSKNTLYLQMNSLRAEDTAVYYCARPPRGGSYYPFDPWGQGTLVTVSS VL: not shown | – | – | 9.01 | – |
| antibody 367 (antibody, V domains shown) VH: QVQLVQSGAEVKKPGASVKVSCKASGYTFTGYYIHWVRQAPGQGLEWMGWINPNSGGTIYAQKFQGRVTMTRDTSISTAYMELSRLTSDDTAVYSCAREPYYDILTGYYAPRRYFDYWGQGTLVTVSS VL: QSALTQPASVSGSPGQSITISCTGTSSDVGSYNYVSWYLQHPGKAPKLMIYDVSNRPSGVSNRFSGSKSGNTASLTISGLQAEDEADFYCSSYTSRSTYVFGTGTKVTVL | – | – | – | 16.3 |
| antibody 454 (antibody, V domains shown) VH: QVQLVQSGAEVKKPGASLKVSCKASGYIFTGYYMHWVRQAPGQGLEWMGWISPNSGGTKYAQKFQGRVTMTRDTSISTAYMELSRLRSDDSAVYYCAREPYYDILTGYYTPRRYLDYWGQGTLVTVSS VL: QSALTQPASVSGSPGQSITISCTGTSSDVGDYNYVSWYQQHPGKVPKLMIYDVSHRPSGVTNRFSGSKSGNTASLTISGLRAEDEADYYCSSYTSSSTYVFGTGTKVTVL | – | – | 19.7 | – |
| antibody 530 (antibody, V domains shown) VH: EVQLVESGGGLVQPGGSLRLSCAASGFTFSSYWMSWVRQAPGKGLEWVANIKQDGSEKYYVDSVKGRFTISRDNAKNSLYLQMNSLRAEDTAVYYCAREPQLWSEYYFDYWGQGTLVTVSS VL: DIQMTQSPSSLSASVGDRVTITCRASQGISSWLAWYQQKPEKAPKSLIYAASSLQSGVPSRFSGSGSGTDFTLTISSLQPEDFATYYCQQYNSYPPTFGQGTRLEIK | 8.39 | 8.68 | – | – |
| antibody 515 (antibody, V domains shown) VH: EVQLVESGGGLVKPGGSLRLSCAASGFTFSSYSMNWVRQAPGKGLEWVSSISSSSSYIYYADSVKGRFTISRDNAKNSLYLQMNSLRAEDTAVYYCASIAAAGTLYYYYGMDVWGQGTTVTVSS VL: not shown | 9.43 | 21.6 | – | – |
| antibody 423 (antibody, V domains shown) VH: EVQLVESGGGLIQPGGSLRISCAASGFTVRNNHMSWVRQAPGKGLEWVSVFYRGGTTYYADSVKGRFTISRDDSKNTVDLQMNSLRGEDTAVYYCARGLSVAASGYFDCWGQGTLVTVSS VL: DIQMTQSPSSVSASVGDTVTITCRANQGISSWLAWYQQVPGKAPELLIYATSTLQSGVPSRFSGSGSGTDFTLTISSLQPEDFATYYCQQANSFPFTFGPGTKVDIK | – | – | 15.3 | – |
| antibody 422 (antibody, V domains shown) VH: QVQLVQSGSELKKPGASVKVSCKASGYTFTSYAMNWVRQAPGQGLEWMGWINTNTGNPTYAQGFTGRFVFSLDTSVSTTYLQISSLKAEDTAVYYCARVIGVVTYYYYGMDVWGQGTTVTVSS VL: not shown | – | – | 15.2 | – |
| antibody 372 (antibody, V domains shown) VH: QVQLVESGGGVVQPGRSLRLSCAASGFTFSSYAMHWVRQAPGKGLEWVAVISYDGSNKYYADSVKGRFTISRDNSKNTLYLQMNSLRAEDTAVYYCARDLGTSALLWFGELFLNYGMDVWGQGTTVTVSS VL: QSALTQPRSVSGSPGQSVTISCTGTSSDVGGYNYVSWYQQHPGKAPKLMIYDVSKRPSGVPDRFSGSKSGNTASLTISGLQAEDEADYYCCSYAGSPILVFGGGTKLTVL | – | – | – | 18.1 |
| antibody 421 (antibody, V domains shown) VH: QVQLVESGGGVVQPGRSLRLSCAASGFTFSTYAMHWVRQAPGKGLEWVAVISYDGSNKYYADSVKGRFTISRDNSKNTLYLQMNSLRAEDTAVYYCARGYGSGSYYPLYLYWGQGTLVTVSS VL: not shown | – | – | 9.33 | – |
| antibody 552 (antibody, V domains shown) VH: QVQLVQSGAEVKKPGSSVKVSCKASGGTFSSYGISWVRQAPGQGLEWMGRIIPILGIANYAQKFQGRVTITADKSTSTAYMELSSLRSEDTAVYYCARAVYAAGDDDYYYYYGMDVWGQGTTVTVSS VL: SYELTQPPSVSVSPGQTARITCSGDALPKQYAYWYQQKPGQAPVVVIYKDSDRPSGIPERFSGSSSGTTVTLTISGVQAEDEADYYCQSADSSGTYQVFGTGTKVSVL | 13.2 | 23.5 | – | – |
| antibody 525 (antibody, V domains shown) VH: QVQLVESGGGVVQPGRSLRLSCAASGFTFSSYAMHWVRQAPGKGLEWVTVISYNGRNKYYADSVKGRFTISRDNSKNTLYLQMNSLRAEDTAVYWCAREGLGAIVVGLDYWGQGTLVIVSS VL: not shown | 32.4 | 7.12 | – | – |
| antibody 529 (antibody, V domains shown) VH: QVQLVQSGAEVKKPGASVKVSCKASGYTFTSYGISWVRQAPGQGLEWMGWISAYNGNTNYAQKLQGRVTMTTDTSTSTAYMELRSLRSDDTAVYYCARMLIAAAGTSRDYYGMDVWGQGTTVTVSS VL: EIVLTQSPDFQSVTPKEKVTITCRASQSIGSSLHWYQQKPDQSPKLLIKYASQSFSGVPSRFSGSGSGTDFTLTINSLEAEDAATYYCHQSSSLPHTFGGGTKVEIK | 0.98 | 0.77 | – | – |
| antibody 559 (antibody, V domains shown) VH: QVQLQESGPGLVKLSETLSLTCTVSGYSISSGYYWGWIRQPPGKGLEWIGSIYHSGSTYYNPSLKSRVTISVDTSKNQFSLKLSSVTAADTAVYYCAREETLGSSWYESYIDYWGQGTLVTVSS VL: SYVLTQPPSVSVAPGKTARITCGGNNIGSKSVHWYQQKPGQAPVLVIYYDSDRPSGIPERFSGSNSGNTATLTISRVEAGDEADYYCQVWDSSSDHPRVFGGGTKLTVL | 25.4 | 49.5 | – | – |
| antibody 532 (antibody, V domains shown) VH: EVQLVESGGGLVQPGGSLRLSCAASGIIVSSNYMSWVRQAPGKGLEWVSVIYSGGSTYYADSVKGRFTISRDNSKNTLYLQMNSLRAEDTAVYYCAREGLVGATLAFDYWGQGTLVTVSS VL: not shown | 45.1 | 74.9 | – | – |
| antibody 528 (antibody, V domains shown) VH: QVQLVQSGAEVKKPGSSVKVSCKASGGTFNSNSISWVRQAPGQGLEWMGRIIPILDITMYARKFQGRVTISADKSTGTAYMDLSSLRSEDTAVYYCATDRDDSSGDYYYGMDVWGQGTTVTVSS VL: DIQMTQSPSSLSASVGDRVTITCRASLSISNYLNWYQQKPGKAPNLLIYAASTLQSGVPSRFSGSGSGTDFTLTISSLQPEDFATYYCQQTYITRWTFGQGTKVEIK | 31.2 | 3.71 | – | – |
| antibody 535 (antibody, V domains shown) VH: EVQLVESGGGLIQPGGSLRLSCAASGFTVSSNYMSWVRQAPGKGLEWVSVIYSGGSTYYADSVKGRFTISRDNSKNTLYLQMNSLRAEDTAVYYCARDLTEEGDFWSASSYRRYYYYGMDVWGQGTTVTVSS VL: not shown | 64.5 | 93.2 | – | – |
| antibody 456 (antibody, V domains shown) VH: QVQLQQWGAGLLKPSETLSLTCAVYGGSFSGYYWSWIRQPPGKGLEWIGEINHSGSTNYNPSLKSRVTISVDTSKNQFSLKLSSVTAADTAVYYCARDGSGSYYLSYYFDYWGQGTLVTVSS VL: not shown | – | – | 8.16 | – |
| antibody 378 (antibody, V domains shown) VH: QVQLVQSGAEVKKPGASVKVSCKASGYTFTSYYMHWVRQAPGQGLEWMGIINPSGGSTSYAQKFQGRVTMTRDTSTSTVYMELSSLRSEDTAVYYCARDSGGMDDFWSGYYSPGGDYWGQGTLVTVSS VL: QSALTQPASVSGSPGQSITISCTGTSSDVGSYNLVSWYQQHPGKAPKLMIYEGSKRPSGVSNRFSGSKSGNTASLTISGLQAEDEADYYCCSYAGSSTWVFGGGTKLTVL | – | – | – | 14.3 |
| antibody 446 (antibody, V domains shown) VH: QVQLVESGGGVVQPGRSLRLSCAASGFTFSSYAMHWVRQAPGKGLEWVAVISYDGSNKYYADSVKGRFTISRDNSKNTLYLQMNSLRAEDTAVYYCARPNSGSYFGYFQHWGQGTLVTVSS VL: QSVLTQPPSVSGAPGQRVTISCTGSSSNIGAGYDVHWYQQLPGTAPKLLIYGNSNRPSGVPDRFSGSKSGTSASLAITGLQAEDEADYYCQSYDSSLSGFYVFGTGTKVTVL | – | – | 6.16 | – |

From patent US20210292393A1 (published 2021)
